Data from patent US20190250145A1.
Blank lines part the entries; values can stand above or below the substance they belong to.

Key:
[1] = biological target: I-IIC-CFluc (carboxyl terminal portion of luciferase attached to I-IIC domain of CaV1.2) [luciferase: P08659]; test: split firefly luciferase complementation in HEK cells
[2] = biological target: endogenous β-subunit of mouse heart (CaVβ) (mouse) (UniProt Q8CC27); test: cell-based or functional assay
[3] = biological target: GKC-CFluc (carboxyl terminal portion of luciferase attached to GKC) [luciferase: P08659]; test: split firefly luciferase complementation in HEK cells
[4] = biological target: endogenous β subunits of guinea pig ventricular cardiomyocytes (guinea pig); test: cell-based or functional assay

Sequence of CaVB-NFluc (amino terminal portion of luciferase attached to CaVB) (P08659 2-416): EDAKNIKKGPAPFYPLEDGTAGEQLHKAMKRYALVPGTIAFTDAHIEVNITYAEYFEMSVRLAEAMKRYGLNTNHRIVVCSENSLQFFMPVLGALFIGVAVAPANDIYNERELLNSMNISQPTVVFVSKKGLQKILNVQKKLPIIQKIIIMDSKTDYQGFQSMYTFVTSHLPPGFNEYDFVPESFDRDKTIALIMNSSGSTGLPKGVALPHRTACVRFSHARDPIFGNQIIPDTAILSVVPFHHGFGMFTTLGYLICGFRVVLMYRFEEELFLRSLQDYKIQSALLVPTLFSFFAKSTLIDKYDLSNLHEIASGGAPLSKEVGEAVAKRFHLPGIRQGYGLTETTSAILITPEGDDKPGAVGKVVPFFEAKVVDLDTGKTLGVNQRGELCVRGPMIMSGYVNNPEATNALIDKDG
Sequence of I-IIC-CFluc (carboxyl terminal portion of luciferase attached to I-IIC domain of CaV1.2) [luciferase: P08659] (P08659 398-550): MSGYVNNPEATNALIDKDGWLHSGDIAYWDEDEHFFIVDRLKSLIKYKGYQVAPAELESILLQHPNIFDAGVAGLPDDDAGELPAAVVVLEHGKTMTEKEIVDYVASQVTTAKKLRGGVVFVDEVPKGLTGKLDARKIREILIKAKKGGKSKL
Sequence of GKC-CFluc (carboxyl terminal portion of luciferase attached to GKC) [luciferase: P08659] (P08659 398-550): as above
Sequence of NFluc-NSH3 (amino terminal portion of luciferase attached to NSH3) (P08659 1-416): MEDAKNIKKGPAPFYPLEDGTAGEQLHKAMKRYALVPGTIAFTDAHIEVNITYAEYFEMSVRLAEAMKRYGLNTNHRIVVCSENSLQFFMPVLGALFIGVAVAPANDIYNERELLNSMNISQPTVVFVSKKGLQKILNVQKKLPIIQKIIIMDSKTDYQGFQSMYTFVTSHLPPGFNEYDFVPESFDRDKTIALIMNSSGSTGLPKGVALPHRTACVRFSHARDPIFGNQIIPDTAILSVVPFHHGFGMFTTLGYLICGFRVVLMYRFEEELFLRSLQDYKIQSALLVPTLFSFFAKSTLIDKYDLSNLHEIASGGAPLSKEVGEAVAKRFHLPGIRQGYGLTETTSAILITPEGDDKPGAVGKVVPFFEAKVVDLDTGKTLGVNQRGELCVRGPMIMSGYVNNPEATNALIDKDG

Substance: CaVB-NFluc (amino terminal portion of luciferase attached to CaVB) (from UniProt P08659 2-416)
bioluminescence signal, fold over negative control [1]: 15 fold

Substance: N-terminal 3×FLAG-tagged dihydropyridine (DHP)-resistant (T1066Y/Q1070M) AID-mutant rabbit α1C (from UniProt P15381 1-2171)
increase in cardiac contractility by 200 nM isoproterenol (Langendorff hearts, nisoldipine present) [2]: 1.2 fold
increase in contractility in response to isoproterenol (isolated hearts, nisoldipine present) [2]: 0 to 25%
increase in fractional shortening by isoproterenol (cardiomyocytes, nisoldipine present) [2]: 25%

Substance: NFluc-NSH3 (amino terminal portion of luciferase attached to NSH3) (from UniProt P08659 1-416)
bioluminescence, fold over negative control cells [3]: 70 fold

Other lines, results leading:

increase in whole-cell current amplitude by 1 µM forskolin [4]: 4 to 5 fold
Substance: YFP-tagged mutant (YWI/AAA) AID peptide

increase in cardiac contractility by 200 nM isoproterenol (Langendorff hearts, nisoldipine present) [2]: 3.3 fold
increase in fractional shortening by isoproterenol (cardiomyocytes, nisoldipine present) [2]: 100%
increase of Ca2+ current by forskolin [2]: 1.8 fold
increase of nisoldipine-insensitive current by 200 nM isoproterenol [2]: 1.9 fold
shift of Vmid in the hyperpolarizing direction by 200 nM isoproterenol [2]: 4.4 mV
Substance: pseudo-wild-type (pWT) α1C: transgenic FLAG-tagged DHP-resistant α1C subunit with wild-type AID (from UniProt P15381 1-2171)
